# T1: DdaA (Ab) (Acinetobacter baumannii ATCC 17978, UniProt V5VBS3 1-335)
# T1 sequence: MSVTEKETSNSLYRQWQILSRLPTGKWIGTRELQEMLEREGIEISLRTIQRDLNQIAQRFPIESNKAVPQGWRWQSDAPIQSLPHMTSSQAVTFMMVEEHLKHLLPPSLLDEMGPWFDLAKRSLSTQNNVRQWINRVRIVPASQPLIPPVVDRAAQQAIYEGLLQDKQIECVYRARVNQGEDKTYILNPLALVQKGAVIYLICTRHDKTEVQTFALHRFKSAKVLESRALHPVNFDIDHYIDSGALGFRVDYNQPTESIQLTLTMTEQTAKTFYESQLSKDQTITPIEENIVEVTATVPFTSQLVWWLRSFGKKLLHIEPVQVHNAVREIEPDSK
# B1: recA promoter WT (FAM-AR-DDRM) (dsDNA)
# DNA 1: TTTCCGGTCTGGGCGACACAATATGACGTGTAATTTTAACC
# DNA 2: GGTTAAAATTACACGTCATATTGTGTCGCCCAGACCGGAAA
# Biological target: T1, DdaA (Ab)
# Test: EMSA
binder,measurement,value
B1,binding result,binds
